Laboratory results taken from a protein production outcome set (Wang et al. 2014).

Assay: label from the status in PepcDB records
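Note: failed if final PepcDB status was selected cloned or expressed and not failed if soluble or beyond.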

| Sequence | protein production |
| --- | --- |
| MDSRSLSVHDGAMQTLTVPDSGLAPLLPGQRLARGVCRHLRSHDFVSVVELVPAPGLRVDVMALGPKGEIWVVECKSSRADYQSDRKWQGYLDWCDRFFFAVDEAFPVDLLPEGTGLMLADGYDAEILRIGPEGRLAPARRKAVIQGFARHAALRLQGLRDPGAFPG | failed |
| MTPELNLKSLGAKTPYIFEYNSQLLEAFPNPNPNLDPLITLECKEFTSLCPITSQPDFGVIFIRYIPKDKMVESKSLKLYLFSYRNHGSFHESCINTILLDLVRLLEPKYLEVYGDFASRGGIAIKPFVNYAIKEYQDFKEKRLLNAK | failed |
| MQSAYSFLPQVIAHRGSSGQAPENTLASLHLAGQQGIKWVEIDVMLSGDGIPVIFHDDYLSRTTDGDGLIYKTPLAELKQLDAGSWKGQEYQQETIPTLLEAIEVISQYGMGLNLELKPCEGLEEETIAASVEVLKQHWPQDLPLLFSSFNYFALVSAKALWPEIARGYNVSAIPSAWQERLEHLDCAGLHIHQSFFDVQQVSDIKAAGYKVLAFTINDESLALKLYNQGLDAVFSDYPQKIQSAIDSHIN | not failed |
| IKENAAQEVLEVQKVIDRLADNGQKALKAFESYNQEQVDNIVHAMALAGLDQHMPLAKLAVEETGRGLYEDKCIKNIFATEYIWNNIKNNKTVGVINEDTQTGVIEIAEPVGVVAGVTPVTNPTSTTLFKAIIAIKTRNPIIFAFHPSAQRCSSEAAKVVYDAAVAAGAPEHCIQWVEKPSLEATKQLMNHDKVALVLATGGAGMVKSAYSTGKPALGVGPGNVPAYIDKTAKIKRSVNDIILSKSFDQGMICASE | failed |
| MKLNVKMLSVTLGLFTSHAFAHTVYENARIYTVNDQQPTASVLVVEQGKIIYVGGNDGAKQFKATAAELFDLEGKTVLPGFIESHAHPATVAVMQAGDFVYVDGAASLTQILNQLKDYLAAHPKANYLLAQGFNVASLGLPQGALPTAADLDTVSTSIPIVVYDSGMHAGWANSAALKIAHVDANTPDPISGKHYFERDNKGNPTGFMHESAMHNVVDAQQFNTVENVAEQLKPILNTYHSLGFTAITDVGDTFSTTTAAIARLNDQGKLKVYYQRGYFYDAAKSTEQNIASLKALREKYNRGNLSMNLYKLFMDGTIEMDSGAMFKPYPNGNIVEPFLSQKQINDNVAAALKAGFSVHVHAIGDKAQQSILDAFEASKNINPHLARVIAHNQVFEPQGVQKFAAMKDNLFLQTTPNWTVLNEKDETKTKIGSDAYNHQYLLGQVVREGVAVTFGSDYPANTFDAVNPFSQMYHAIKRGQPNAGYLPPTDAAMTLDQSLRAYTINGAKQLGISDITGSLEKGKNADFIIVDTDIGSVDLEKLKNTNVLATYFKGEKVY | failed |
| MRSDVVARAMRLIADGTVDRDGVSGLAAQLGYTIRQLERLLQAVVGAGPLALARAQRMQTARVLIETTNLPFGDVAFAAGFSSIRQFNDTVRLACDGTPTALRARAAARFESATASAGTVSLRLPVRAPFAFEGVFGHLAATAVPGCEEVRDGAYRRTLRLPWGNGIVSLTPAPDHVRCLLVLDDFRDLMTATARCRRLLDLDADPEAIVEALGADPDLRAVVGKAPGQRIPRTVDEAEFAVRAVLAQQVSTKAASTHAGRLVAAYGRPVHDRHGALTHTFPSIEQLAEIDPGHLAVPKARQRTINALVASLADKSLVLDAGCDWQRARGQLLALPGVGPWTAEVIAMRGLGDPDAFPASDLGLRLAAKKLGLPAQRRALTVHSARWRPWRSYATQHLWTTLEHPVNQWPPQEKIALEHHHHHH | failed |
| IQVDYEDVKLDGYFFSPSWIKGPKPTILALNGGDEWSIENYFWLGPAFISCGYNFMVYDQPGTGLSMYEKGKGRRADSEAFHSRAIDFLLTRPEVDPNKIIVHGESFAAYDSLRFASFDHRIAAVISDGGTHAFDWEAMLKWMPPSLAGHGMRILGAKSLDDFAENPRFAYNLEGVLHQIECPLLVMHGAEEILVQPNPLTQALKNYEQAGSKNKTFFPIEDRRIGGLEHCQVDNINVLHEVVLNWL | not failed |
| MYYLFIFEMLWLLFVIVFVSFLSFSDFDRKKVNYFSVVIVGILLSITAGFRNVGGVDTDYAIYKNHYNGELGSYSYELFEPGYNTVVWLGNIVGLSFNLFVFILTSICLLLLLKLIFKYSKYPMLSVMIYLGTYFLFYNMVLMRQMVSVVMFLYCINYTIEKKYIKCLLCFLVGLSFHLSMIVFLPAFFVLRYFKLNIWNIIFILIIGVFLKIVGAINLVMFVGGVIESRMANYLAGDGFTLNIMEYIKMIIIICAILILFPKLIGDYFNEILIKSYCVFFILIFAFGDIEIFFRIAMYFDLVILFLIPILFDKISMTRFSRITIYTLVVIFFAFSFIYRVHNFDNGEFYQYKFFFLE | failed |
| MSTELIAAVEAADSAEGLVRAVAALSAARTDAAIPTLISVLAFNNPGAAVVAVDGLIQLGSPAAQAILNNLDDYNYGARAWALRALAGIGEPAALPLLLSAAREDFSLSVRRAATYGLGRVRWADLSESDRLAQQQQCYETLKLCLQYDPEWVVRYAAAAALETLAPAATQLQSAIAETLNRQAHSDEERAVQARSRLAERRLAGGVLEHHHHHH | not failed |
| MENLTNDVITILQYLLPGFVSAWVFYSLTSYPKPSQFERVVQALIFTIFIQAIVVVVEFSVRWLCATYEITGVPDKFGLVGSVVTAILLGVAFAGFANNDLLHKCLRRCLITRETSYLRNGLVPFYRTLLLLSYT | failed |
| ALRTELGLNVSGGGKTNQYYFSAGYLNDKGIALESGYERFNLRSNVTSQMTKWLRGGVNMSFAHSLQNYPVSSDTKTSNVINAGRLMNGFYPIYQMNEDGTYKLDSEGQRMYDFGSYRPSGSMANWNLPATLPNDKSERMKDEFSGRTFLEVTFIEGLKFKTSFNFDLINYNSLDYTNPKIGPAVNTGGSSSRENDRTFSWTWNNILTYDKTLGEHHFNLLAGQEAYSYRYDVLRASRSNMALPDFPELAVGSLVTGGTGYRVDYSLVGYFLNAQYDYQSKYFFSGSYRRDGSSRFAPETRWGNFWSVGASWRIDREDFMVAASDWLSALTLKVSYGAQGNDNLGTYYASSGLYSVVSNNGENALVSDRLATPKLKWETNLNFNAGIDFSLFNNRFSGSFDFFQRRSKDLLYSRPLAPSLGYNSVDENVGELKNTGVEIDLKGTLIHTRDFMWRLGLNLTHYKNVVTDLPLKDMP | failed |
| MSKATTPGDQPKVSEMDFYQLLGVEKMASEAEIKSAYRKLALKYHPDRNPNDAHAQEEFKKVSIAYSVLSDPNKRRQYDVSGPSENQLDFEGFDVSEMGGVGRVFGALFSKLGVPIPTQIVPKVLAQARHICMGQECDVQARQLPPGETVTSSVSKQHAHFYEINIQEEHRKNGVAIICKSSSSKFKLVLFDKEGGVRMIQESGKRGKAGTQADMFFVPYNVANIQEFNAMKYHLEDKETPLAFHYLDSFEMQTATLLETRKHYIAVYGDNWISDVKYSITFLPVEPSAVEQLNEIQDTEKSISIIKKEMLDFQREFTEAKRKYDEAVAKLKVQDDTILKALAHREELYNEVLQKSQEPYNKKVSPSKSSGGLLGWFK | not failed |
| MGWFFVFCAAISEIVGVIGLKMYSKDKTLANGAIYIGGFATSFAFLYTSFLFLQVSVAYAVWIGIGTAGAVLLNMFLFGESKSKARIISVFLIVCGVTGLKALS | failed |
| MSLRIGVIGLGRIGTIHAENLKMIDDAILYAISDVREDRLREMKEKLGVEKAYKDPHELIEDPNVDAVLVCSSTNTHSELVIACAKAKKHVFCEKPLSLNLADVDRMIEETKKADVILFTGFNRRFDRNFKKLKEAVENGTIGKPHVLRITSRDPAPPPLDYIRVSGGIFLDMTIHDFDMARYIMGEEVEEVFADGSVLVDEEIGKAGDVDTAVVVLRFKSGALGVIDNSRRAVYGYDQRIEVFGSKGRIFADNVRETTVVLTDEQGDRGSRYLYFFLERYRDSYLEELKTFIKNVKSGEPPAVSGEDGKMALLLGYAAKKSLEEKRSVKLEEVIGEGHHHHHH | not failed |
| MMGIMSDPITILDSSDSLSRLSSESVGRLVVHRKDDLDIFPVNFVLDYSAEQPRVYFRTAEGTKLFSVNLNSDVLFEVDRFDDAEGWSVVLKGNAYVVRDTEEARHADTLGLKPWLPTLKYNFVRIDVREVSGRAFVFGEEPERY | not failed |
| MDAMKYHDLRDFLTLLEQQGELKRITLPVDPHLEITEIADRTLRAGGPALLFENPKGYAMPVLCNLFGTPKRVAMGMGQDDVSALREVGKLLAFLKEPEPPKGFRDLFDKLPQFKQVLNMPTKRLRGAPCQQKIASGDDVDLTRLPVMTCWPDDAAPLITWGLTVTRGPHKERQNLGIYRQQLIGKNKLIMRWLSHRGGALDFQEWLAARPGERFPVSVALGADPATILGAVTPVPDTLSEYAFAGLLRGTKTEVVKCLSNDLEVPASAEIILEGYIEPGEMAPEGPYGDHTGYYNEVDSFPVFTVTHITQREDAIYHSTYTGRPPDEPAVLGVALNEVFVPILQKQFPEIVDFYLPPEGCSYRLAVVTMKKQYAGHAKRVMMGVWSFLRQFMYTKFVIVCDDDVNARDWNDVIWAITTRMDPARDTVLVENTPIDYLDFASPVSGLGSKMGLDATNKWPGETQREWGRPIVKDPEVTARIDAIWDELAIFKLEHHHHHH | not failed |
| MSVDPKLIRQKIQRLDAGARPRVLDLFSGCGGISLGFQSAGFEIVAAVENDPDAARSHGLNFHHGEDRHSIPRNITVTSPAALATALGLGAAASAFDVIVGGPPCQAFARVGRSKLREIAEHPEAFRHDSRARLYIEYLAYVEACAPLAVVIENVPDMLNHGGHNLAAEIGEILASKDYVVRYTLLNAAFYGVPQMRERMILIAIRKELADDVEFPAPTHWIDLPSGYQGSRAVALKLATGRDLLTEATGGSAYKAAPEAVETLAPAVSTQQAIGDLPEIMARELLAEGALRRGTRRLDAMLPYGGHNQQNDYVKEMRTWPGFEGSSHVRDHVIRYLPRDYRIFAGLKPGDQYPEAHRYALSLFEAELERLHAQGKRPEDGSSEWDALKAAFVPPYDAGKFPNKWRKMEATTPARTLLAHLGKDGYSHIHYDSRQARPISVREAARLQSFPDGFRFAGTMNPAFRQIGNAVPPLLARAIAQTLRSQLVRGVATEDLPRVAGAGR | failed |
| MNMLVINGTPRKHGRTRIAASYIAALYHTDLIDLSEFVLPVFNGEAEQSELLKVQELKQRVTKADAIVLLSPEYHSGMSGALKNALDFLSSEQFKYKPVALLAVAGGGKGGINALNNMRTVMRGVYANVIPKQLVLDPVHIDVENATVAENIKESIKELVEELSMFAKAGNPGV | not failed |
| GQTAKLVSLRDISDRKRMENQLRENQNKYYRLLENLDNGVIVHNANAEIVYANPKAESFLGLTDLEGRDIDDEYWMFFDKEGEKLEKEEFPVAQVLANQSSLKNFEMGIYRPDTDQLLWAYINAYPEFYNE | failed |
| MEHSSMPLWLSSFEEEIDTYIFISSRDNKLYLGILRTYDQHGNVFLTHCVEKIIVPEKNYFSDVYVGNLIIRGDNIAYFGSVDEEKYCKMFDYTIKNDNDEEHNNMDMIKNKKEYSSSENIILVYKPINHILKFIPENNADSSIFEN | failed |
| MQNSIYKQFWKYTIPTVAAMLVNGLYQVVDGIFIGRYVGADGLAGINVAWPVIGSILGIGMMVGVGTGALTSIKQGEQDQQGAKRVLTTGLLFLLALMPIVATILFFFADDFIRWQGAQERVYELGLQYLQILIVACIFSLGSIAVPFLLRNDNSPNLATILMVIGAIINIVLDYVFIAWMNWELTGAAIATALAQMVVTVLGVGYFFSSKAKLRLTFRELKVQLDAIPKIVLIGTSSFFMYAYGSTMVALHNALFAQYGSPLLIGAYAILGYIVTVYYLVAEGIANGMQPLVSYNHGARNQDNIRKLLQIAMGTSVLGGVVFVVLMNLFPYQLVSVFNDADQQLIESAVMGIRLHMFALFMDGFLVVAGAYYQSVNKGSKAMFVTVGNMLIQLPFLFIMPKLLGVTGIWIAFPLSNIALSLVVMSMLWRDIKKLMVDSPVEPSIQAS | not failed |
| MSLNYIEDIKNYIPFNEQEERDKELFLRCLNDFHDILTRDNTIAHLTSSAFAVNKERNKFLMIHHNIYNSWAWTGGHSDNEKDQLKVAIKELKEETGVKNPTPLLDKAFALDVLTVNGHIKRGKYVSSHLHLNLTYLIECSEDETLMLKEDENSGVMWIPFNEISKYCSEPHMIPIYEKLINKLKTQSKEGHHHHHH | not failed |
